Data as given in the supplement of paper PMC10567573.

B1: NP_009172.2 (parent)
chain: LPALFTDLYSQEITAEEAREALP
B2: ZNF8 (parent)
chain: KPYTCSVCGKSFSRTTCLFLHLRT

Variants of: B1
Assay: protein stability index of a GFP-peptide fusion (GPS, HEK-293T) (PSI 1-6); higher = more stable
Conditions: c terminus: native

Variant	protein stability index
LPALFTDLYSQEITAEEARCALP [E20C]	2.38
LPALFTDLYSQEITAEEARWALP [E20W]	2.42
LPALFTDLYSQEITAEEARMALP [E20M]	2.39
LPALFTDLYSQEITAEEARDALP [E20D]	2.65
LPALFTDLYSQEITAEEARYALP [E20Y]	3.08
LPALFTDLYSQEITAEEARRALP [E20R]	1.98
LPALFTDLYSQEITAEEARGALP [E20G]	2.11
LPALFTDLYSQEITAEEARSALP [E20S]	2.28
LPALFTDLYSQEITAEEARAALP [E20A]	2.41
LPALFTDLYSQEITAEEARKALP [E20K]	2.42
LPALFTDLYSQEITAEEARQALP [E20Q]	2.22
LPALFTDLYSQEITAEEAEEALP [R19E]	2.81
LPALFTDLYSQEITAEEAWEALP [R19W]	2.56
LPALFTDLYSQEITAEEACEALP [R19C]	2.93
LPALFTDLYSQEITAEEAIEALP [R19I]	2.45
LPALFTDLYSQEITAEEAFEALP [R19F]	2.68
LPALFTDLYSQEITAEEATEALP [R19T]	2.9
LPALFTDLYSQEITAEEAGEALP [R19G]	2.96
LPALFTDLYSQEITAEEASEALP [R19S]	2.89
LPALFTDLYSQEITAEEAVEALP [R19V]	2.8
LPALFTDLYSQEITAEEANEALP [R19N]	2.71
LPALFTDLYSQEITAEEALEALP [R19L]	2.47
LPALFTDLYSQEITAEEAPEALP [R19P]	2.93
LPALFTDLYSQEITAEEADEALP [R19D]	3
LPALFTDLYSQEITAEEAYEALP [R19Y]	2.53
LPALFTDLYSQEITAEEAAEALP [R19A]	2.75
LPALFTDLYSQEITAEEAHEALP [R19H]	2.82
LPALFTDLYSQEITAEEAQEALP [R19Q]	2.75
LPALFTDLYSQEITAEEAMEALP [R19M]	2.59
LPALFTDLYSQEITAEEAKEALP [R19K]	2.79

Variants of: B2
Assay: as above
Conditions: c terminus: a fixed tail appended

Variant	protein stability index
KPYTCSVCGKSFSRTTALFLHLRT [C17A]	2.19
KPYTCSVCGKSFSRTTVLFLHLRT [C17V]	1.85
KPYTCSVCGKSFSRTTWLFLHLRT [C17W]	1.5
KPYTCSVCGKSFSRTTGLFLHLRT [C17G]	2.22
KPYTCSVCGKSFSTTTCLFLHLRT [R14T]	3.19
KPYTCSVCGKSFSATTCLFLHLRT [R14A]	2.39
KPYTCSVCGKSFSSTTCLFLHLRT [R14S]	3.13
KPYTCSVCGKSFSHTTCLFLHLRT [R14H]	2.3
KPYTCVVCGKSFSRTTCLFLHLRT [S6V]	2.45
KPYTCWVCGKSFSRTTCLFLHLRT [S6W]	1.66
KPYTCGVCGKSFSRTTCLFLHLRT [S6G]	2.48
KMYTCSVCGKSFSRTTCLFLHLRT [P2M]	1.98
KYYTCSVCGKSFSRTTCLFLHLRT [P2Y]	2.09
KDYTCSVCGKSFSRTTCLFLHLRT [P2D]	2.33
KPYTCSVCGLSFSRTTCLFLHLRT [K10L]	1.94
KPYTCSVCGVSFSRTTCLFLHLRT [K10V]	1.83
KPYTCSVCGYSFSRTTCLFLHLRT [K10Y]	2.21
KPYTCSVCGWSFSRTTCLFLHLRT [K10W]	2.83
KPYTCSVCGKMFSRTTCLFLHLRT [S11M]	1.76
KPYTCSVCGKHFSRTTCLFLHLRT [S11H]	3.04
KPYTCSVCGKGFSRTTCLFLHLRT [S11G]	1.51
KPYTCSVCGKFFSRTTCLFLHLRT [S11F]	1.72

Variant	protein stability index
KPYTCSVCGKSFYRTTCLFLHLRT [S13Y]	1.75
KPYTCSVCGKSFPRTTCLFLHLRT [S13P]	2.16
KPYTCSVCGKSFIRTTCLFLHLRT [S13I]	1.67
KPYTCSVCGKSFNRTTCLFLHLRT [S13N]	1.76
KPYTCSVCGKSFSRTTCLHLHLRT [F19H]	2.26
KPYTCSVCGKSFSRTTCLMLHLRT [F19M]	2.35
KPYTCSVCGKSFSRTTCLDLHLRT [F19D]	2.79
KPYTCSVCGKSFSRTTCLFLHLRW [T24W]	2.5
KPYTCSVCGKSFSRTTCLFLHLRK [T24K]	2.29
KPYTCSVCGKSFSRTECLFLHLRT [T16E]	2.25
KPYTCSVCGKSFSRTRCLFLHLRT [T16R]	1.82
KPYTCSVCGKSFSRTTCYFLHLRT [L18Y]	2.43
KPYTCSVCGKSFSRTTCHFLHLRT [L18H]	1.96
KPYTCSVCGKSFSRTTCLFLFLRT [H21F]	1.65
KPYTCSVCGKSFSRTTCLFLLLRT [H21L]	2.39
KPYTCSVCGKSFSRTTCLFLSLRT [H21S]	2.04
KPYTCSVCGKSFSRTTCLFLDLRT [H21D]	1.35
KPYTCSVCGKSFSRTTCLFWHLRT [L20W]	1.39
KPYTCSVCGKSFSRTTCLFLHLLT [R23L]	1.65
KPYTCSVCGKSFSRTTCLFLHLFT [R23F]	1.64
KPYTCSVCGKSFSRTTCLFLHLDT [R23D]	1.91
KPYTCSVCGKSFSRTTCLFLHLNT [R23N]	1.75

Variant	protein stability index
EPYTCSVCGKSFSRTTCLFLHLRT [K1E]	2.19
WPYTCSVCGKSFSRTTCLFLHLRT [K1W]	1.74
IPYTCSVCGKSFSRTTCLFLHLRT [K1I]	2.04
APYTCSVCGKSFSRTTCLFLHLRT [K1A]	2.74
LPYTCSVCGKSFSRTTCLFLHLRT [K1L]	2.27
KPYTCSVMGKSFSRTTCLFLHLRT [C8M]	2.19
KPYTCSVLGKSFSRTTCLFLHLRT [C8L]	2.28
KPYTCSVEGKSFSRTTCLFLHLRT [C8E]	3.46
KPYSCSVCGKSFSRTTCLFLHLRT [T4S]	1.48
KPYWCSVCGKSFSRTTCLFLHLRT [T4W]	1.62
KPYTCSVCGKSFSRCTCLFLHLRT [T15C]	2.49
KPYTCSVCGKSFSRPTCLFLHLRT [T15P]	2.47
KPYTCSVCGKSFSRSTCLFLHLRT [T15S]	2.4
KPYTCSVCGKSFSRDTCLFLHLRT [T15D]	2.9
KPYTCSVCGKSFSRETCLFLHLRT [T15E]	2.64
KPQTCSVCGKSFSRTTCLFLHLRT [Y3Q]	2.01
KPYTCSVCGKSESRTTCLFLHLRT [F12E]	1.77
KPYTCSVCGKSHSRTTCLFLHLRT [F12H]	2.35
KPYTCSVCGKSASRTTCLFLHLRT [F12A]	1.76
KPYTCSVCGKSKSRTTCLFLHLRT [F12K]	2.88
KPYTCSVCCKSFSRTTCLFLHLRT [G9C]	2.43
KPYTCSVCPKSFSRTTCLFLHLRT [G9P]	1.72
